According to US20220098306A1 (published 2022):

T1: mouse Fc fusion of B7H3, full extracellular V1C1-V2C2 domain (human, UniProt Q5ZPR3 29-466)
T1 chain: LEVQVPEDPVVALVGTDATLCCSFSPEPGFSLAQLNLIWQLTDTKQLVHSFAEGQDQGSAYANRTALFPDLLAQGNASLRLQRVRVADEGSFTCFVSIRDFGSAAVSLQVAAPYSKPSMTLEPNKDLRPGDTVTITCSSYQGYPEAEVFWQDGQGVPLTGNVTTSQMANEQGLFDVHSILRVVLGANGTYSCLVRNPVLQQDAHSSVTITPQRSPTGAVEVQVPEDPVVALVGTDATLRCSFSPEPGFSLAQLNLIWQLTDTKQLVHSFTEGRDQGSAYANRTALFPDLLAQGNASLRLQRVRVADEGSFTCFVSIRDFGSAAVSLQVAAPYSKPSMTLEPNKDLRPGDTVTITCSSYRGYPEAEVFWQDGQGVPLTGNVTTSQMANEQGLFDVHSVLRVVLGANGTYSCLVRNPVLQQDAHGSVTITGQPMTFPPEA

T2: huB7H3 (V1C1)
T2 chain: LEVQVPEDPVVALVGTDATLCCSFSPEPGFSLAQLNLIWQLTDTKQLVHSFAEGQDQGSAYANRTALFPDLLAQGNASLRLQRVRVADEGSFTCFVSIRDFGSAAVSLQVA

T3: huB7H3 (V2C2)
T3 chain: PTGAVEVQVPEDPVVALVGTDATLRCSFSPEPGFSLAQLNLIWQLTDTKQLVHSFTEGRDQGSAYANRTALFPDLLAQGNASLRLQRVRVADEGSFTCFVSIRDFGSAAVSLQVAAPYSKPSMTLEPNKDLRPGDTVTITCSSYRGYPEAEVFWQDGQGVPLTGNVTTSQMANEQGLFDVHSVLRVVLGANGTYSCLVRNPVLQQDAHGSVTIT


Key:
[1] = target: T1, mouse Fc fusion of B7H3, full …; assay: Octet
huB7H3 (V1C1) = target: T2, huB7H3 (V1C1); assay: Octet
huB7H3 (V2C2) = target: T3, huB7H3 (V2C2); assay: Octet
[2] = target: CD28 (antigen of the affinity determinations) (human, UniProt P10747 19-152); assay: Octet; avid

Kd [1] [nM]	Kd (huB7H3 (V1C1)) [nM]	Kd (huB7H3 (V2C2)) [nM]	Kd (4F12_H2_L1.1) [nM]	Kd [2] [nM]	Binder
4.3	4.4	6.4			XENP34728 (6A1) (antibody, V domains shown) VH: EVQLLESGGGLVQPGGSLRLSCAASGFTFSNYYMAWVRQAPGKGLEWVSSISTGGGSTYYRDSVKGRFTISRDNSKSTLYLQMNSLRAEDTAVYYCTTDLSAIAATPFAYWGQGTLVTVSS VL: DIQMTQSPSSLSASVGDRVTITCRASQNIYTSLAWYQQKPGKAPKLLIYNAHSLQTGIPSRFSGSGSGADFTLTISSLQPEDFATYFCQQYYSGLTFGSGTKLEIKR
16	21	21			XENP34717 (bispecific antibody) heavy 1: EVQLLESGGGLVQPGGSLRLSCAASGFTFSSYYMSWVRQAPGKGLEWVSTISESGDSTYYADSVKGRFTISRDNSKNTLYLQMNSLRAEDTAVYYCAKSGPGLRQVGFDYWGQGTLVTVSSASTKGPSVFPLAPSSKSTSGGTAALGCLVKDYFPEPVTVSWNSGALTSGVHTFPAVLQSSGLYSLSSVVTVPSSSLGTQTYICNVNHKPSDTKVDKKVEPKSCDKTHTCPPCPAPPVAGPSVFLFPPKPKDTLMISRTPEVTCVVVDVKHEDPEVKFNWYVDGVEVHNAKTKPREEEYNSTYRVVSVLTVLHQDWLNGKEYKCKVSNKALPAPIEKTISKAKGQPREPQVYTLPPSREEMTKNQVSLTCDVSGFYPSDIAVEWESDGQPENNYKTTPPVLDSDGSFFLYSKLTVDKSRWEQGDVFSCSVMHEALHNHYTQKSLSLSPGK heavy 2: QVQLVQSGAEVKKPGASVKVSCKASGYIFTNNYMHWVRQAPGQGLEWMGIISPSVGRTAYAQKFQGRVTMTRDTSTSTVYMELSSLRSEDTAVYYCARGGGSSPRLDYWGQGTLVTVSSASTKGPSVFPLAPSSKSTSGGTAALGCLVKDYFPEPVTVSWNSGALTSGVHTFPAVLQSSGLYSLSSVVTVPSSSLGTQTYICNVNHKPSNTKVDKKVEPKSCDKTHTCPPCPAPPVAGPSVFLFPPKPKDTLMISRTPEVTCVVVDVKHEDPEVKFNWYVDGVEVHNAKTKPREEQYNSTYRVVSVLTVLHQDWLNGKEYKCKVSNKALPAPIEKTISKAKGQPREPQVYTLPPSREQMTKNQVKLTCLVKGFYPSDIAVEWESNGQPENNYKTTPPVLDSDGSFFLYSKLTVDKSRWQQGNVFSCSVMHEALHNHYTQKSLSLSPGK light: not shown
			< 0.1		human B7H3 (V1C1-V2C2) (ligand) LEVQVPEDPVVALVGTDATLCCSFSPEPGFSLAQLNLIWQLTDTKQLVHSFAEGQDQGSAYANRTALFPDLLAQGNASLRLQRVRVADEGSFTCFVSIRDFGSAAVSLQVAAPYSKPSMTLEPNKDLRPGDTVTITCSSYQGYPEAEVFWQDGQGVPLTGNVTTSQMANEQGLFDVHSILRVVLGANGTYSCLVRNPVLQQDAHSSVTITPQRSPTGAVEVQVPEDPVVALVGTDATLRCSFSPEPGFSLAQLNLIWQLTDTKQLVHSFTEGRDQGSAYANRTALFPDLLAQGNASLRLQRVRVADEGSFTCFVSIRDFGSAAVSLQVAAPYSKPSMTLEPNKDLRPGDTVTITCSSYRGYPEAEVFWQDGQGVPLTGNVTTSQMANEQGLFDVHSVLRVVLGANGTYSCLVRNPVLQQDAHGSVTITGQPMTFPPEA
				14.5	XENP28428 (antibody, V domains shown) VH: EVQLLESGGGLVQPGGSLRLSCAASGFTFSSYAMSWVRQAPGKGLEWVSTISGSGDSTYYADSVKGRFTISRDNSKNTLYLQMNSLRAEDTAVYYCAKSGPGLRQVGFDYWGQGTLVTVSS VL: not shown
